Measurements as given in patent US20230272028.

Columns and labels:
[1] = test system: CTSL1_2 9-mer FRET substrate Mca-ALFFSSPPSK-Dnp
[2] = test system: CTSL1_1 FRET substrate (ALFKSSFP)
[3] = test system: CTSL1_2 8-mer FRET substrate Mca-ALFFSSPPK-Dnp

ALU30-6, sequence (chain, as listed by the source): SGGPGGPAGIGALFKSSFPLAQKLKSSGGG
ALU30-15, sequence (chain, as listed by the source): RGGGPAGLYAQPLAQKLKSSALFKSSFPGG
ALU30-18, sequence (chain, as listed by the source): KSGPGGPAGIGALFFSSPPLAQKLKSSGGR
ALU30-16, sequence (chain, as listed by the source): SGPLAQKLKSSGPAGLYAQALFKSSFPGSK
Cathepsin L (CTSL1), recombinant human, sequence (chain, as listed by the source): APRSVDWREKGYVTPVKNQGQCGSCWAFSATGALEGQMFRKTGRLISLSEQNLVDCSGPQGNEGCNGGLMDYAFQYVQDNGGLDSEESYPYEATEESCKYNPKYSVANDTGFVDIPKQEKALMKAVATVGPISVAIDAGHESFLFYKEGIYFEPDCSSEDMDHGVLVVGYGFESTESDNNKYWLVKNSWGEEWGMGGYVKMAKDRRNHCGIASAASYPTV
ALU30-5, sequence (chain, as listed by the source): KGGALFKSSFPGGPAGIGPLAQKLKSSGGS
ALU30-1, sequence (chain, as listed by the source): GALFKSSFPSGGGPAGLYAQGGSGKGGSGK
ALU30-8, sequence (chain, as listed by the source): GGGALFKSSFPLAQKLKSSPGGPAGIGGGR
ALU30-9, sequence (chain, as listed by the source): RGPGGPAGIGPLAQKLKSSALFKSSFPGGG
ALU30-7, sequence (chain, as listed by the source): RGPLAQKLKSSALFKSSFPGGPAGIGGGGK
ALU30-12, sequence (chain, as listed by the source): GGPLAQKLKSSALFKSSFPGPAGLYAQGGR
ALU30-10, sequence (chain, as listed by the source): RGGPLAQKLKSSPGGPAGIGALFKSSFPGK
ALU30-11, sequence (chain, as listed by the source): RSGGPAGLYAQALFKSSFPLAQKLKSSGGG
ALU30-13, sequence (chain, as listed by the source): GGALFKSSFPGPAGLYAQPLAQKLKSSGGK
ALU30-17, sequence (chain, as listed by the source): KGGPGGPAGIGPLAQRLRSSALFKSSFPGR
ALU30-14, sequence (chain, as listed by the source): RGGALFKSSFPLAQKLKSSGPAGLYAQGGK
ALU30-19, sequence (chain, as listed by the source): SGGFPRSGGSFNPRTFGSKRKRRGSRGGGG
ALU30-4, sequence (chain, as listed by the source): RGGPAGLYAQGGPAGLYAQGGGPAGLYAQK
ALU30-2, sequence (chain, as listed by the source): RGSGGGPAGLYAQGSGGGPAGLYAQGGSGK
ALU30-3, sequence (chain, as listed by the source): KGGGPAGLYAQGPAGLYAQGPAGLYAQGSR

Cathepsin L (CTSL1), recombinant human
30-mer peptide degradation by recombinant enzyme (MSP-MS) (ALU30-1): CTSL1 treatment of the 30-mer peptide library produced cleavages in all peptides bearing a CTSL1_1 or CTSL1_2 motif | 30-mer peptide degradation by recombinant enzyme (MSP-MS) (ALU30-13): Peptides bearing the MMP14_1 motif with CTSL1_1 and ADAM17_2 were slightly lower efficiency | 30-mer peptide degradation by recombinant enzyme (MSP-MS) (ALU30-11): Peptides bearing the MMP14_1 motif with CTSL1_1 and ADAM17_2 were slightly lower efficiency | FRET substrate cleavage by recombinant enzyme [1]: This 9-mer FRET substrate bearing the CTSL1_2 motif produced comparable catalytic efficiency to the CTSL1_1 motif | 30-mer peptide cleavage (mass spectrometry) (ALU30-18): Both peptides showed rapid disappearance of substrate (squares) and product formation from cleavage at the target scissile bond | 30-mer peptide degradation by recombinant enzyme (MSP-MS) (ALU30-18): CTSL1 treatment of the 30-mer peptide library produced cleavages in all peptides bearing a CTSL1_1 or CTSL1_2 motif | 30-mer peptide degradation by recombinant enzyme (MSP-MS) (ALU30-8): The most efficiently cleaved peptides were those containing the FAPa_1, CTSL1_1 and ADAM17_2 motifs, in multiple orders | 30-mer peptide degradation by recombinant enzyme (MSP-MS) (ALU30-14): Peptides bearing the MMP14_1 motif with CTSL1_1 and ADAM17_2 were slightly lower efficiency | FRET substrate cleavage by recombinant enzyme [2]: CTSL1 cleaves the FRET substrate bearing the CTSL1_1 motif highly efficiently | 30-mer peptide degradation by recombinant enzyme (MSP-MS) (ALU30-16): Peptides bearing the MMP14_1 motif with CTSL1_1 and ADAM17_2 were slightly lower efficiency | 30-mer peptide degradation by recombinant enzyme (MSP-MS) (ALU30-15): Peptides bearing the MMP14_1 motif with CTSL1_1 and ADAM17_2 were slightly lower efficiency | comparison of cleavage efficiencies across the 30-mer library (ALU30-15): it had slightly higher hepsin susceptibility and lower CTSL1 activity | 30-mer peptide degradation by recombinant enzyme (MSP-MS) (ALU30-10): The most efficiently cleaved peptides were those containing the FAPa_1, CTSL1_1 and ADAM17_2 motifs, in multiple orders | 30-mer peptide cleavage (mass spectrometry) (ALU30-6): Both peptides showed rapid disappearance of substrate (squares) and product formation from cleavage at the target scissile bond | 30-mer peptide degradation by recombinant enzyme (MSP-MS) (ALU30-6): The most efficiently cleaved peptides were those containing the FAPa_1, CTSL1_1 and ADAM17_2 motifs, in multiple orders | 30-mer peptide degradation by recombinant enzyme (MSP-MS) (ALU30-7): The most efficiently cleaved peptides were those containing the FAPa_1, CTSL1_1 and ADAM17_2 motifs, in multiple orders | 30-mer peptide degradation by recombinant enzyme (MSP-MS) (ALU30-5): The most efficiently cleaved peptides were those containing the FAPa_1, CTSL1_1 and ADAM17_2 motifs, in multiple orders | 30-mer peptide degradation by recombinant enzyme (MSP-MS) (ALU30-9): The most efficiently cleaved peptides were those containing the FAPa_1, CTSL1_1 and ADAM17_2 motifs, in multiple orders | 30-mer peptide degradation by recombinant enzyme (MSP-MS) (ALU30-12): Peptides bearing the MMP14_1 motif with CTSL1_1 and ADAM17_2 were slightly lower efficiency | FRET substrate cleavage by recombinant enzyme [3]: the new CTSL1_2 motif was not cleaved in the context of an 8-mer FRET peptide | 30-mer peptide degradation by recombinant enzyme (MSP-MS) (ALU30-17): CTSL1 treatment of the 30-mer peptide library produced cleavages in all peptides bearing a CTSL1_1 or CTSL1_2 motif

thrombin, recombinant human
30-mer peptide degradation by recombinant enzyme (MSP-MS) (ALU30-1): The peptides Alu30-1 and Alu30-3 were the most rapidly cleaved in the library | 30-mer peptide degradation by recombinant enzyme (MSP-MS) (ALU30-19): Thrombin showed higher activity than Factor Xa, and it cleaved each of the 30-mer peptides | 30-mer peptide degradation by recombinant enzyme (MSP-MS) (ALU30-13): the peptides Alu30-12, Alu30-13 and Alu30-15, with MMP141 motifs in combination with ADAM17_2 and CTSL1_1, were cleaved at lower efficiency by thrombin | 30-mer peptide degradation by recombinant enzyme (MSP-MS) (ALU30-11): Thrombin showed higher activity than Factor Xa, and it cleaved each of the 30-mer peptides | 30-mer peptide degradation by recombinant enzyme (MSP-MS) (ALU30-2): The peptide Alu30-2, bearing two MMP14_1 motifs, was less susceptible to thrombin | 30-mer peptide degradation by recombinant enzyme (MSP-MS) (ALU30-3): The peptides Alu30-1 and Alu30-3 were the most rapidly cleaved in the library | 30-mer peptide degradation by recombinant enzyme (MSP-MS) (ALU30-18): the CTSL1_2 motif had lower cleavage activity than did the CTSL1_1 motif (peptides Alu30-18 vs Alu30-6) | 30-mer peptide degradation by recombinant enzyme (MSP-MS) (ALU30-8): Thrombin showed higher activity than Factor Xa, and it cleaved each of the 30-mer peptides | 30-mer peptide degradation by recombinant enzyme (MSP-MS) (ALU30-14): Thrombin showed higher activity than Factor Xa, and it cleaved each of the 30-mer peptides | 30-mer peptide degradation by recombinant enzyme (MSP-MS) (ALU30-16): Thrombin showed higher activity than Factor Xa, and it cleaved each of the 30-mer peptides | comparison of cleavage efficiencies across the 30-mer library (ALU30-16): the lowest susceptibility to thrombin, Factor Xa, and hepsin | 30-mer peptide degradation by recombinant enzyme (MSP-MS) (ALU30-15): the peptides Alu30-12, Alu30-13 and Alu30-15, with MMP141 motifs in combination with ADAM17_2 and CTSL1_1, were cleaved at lower efficiency by thrombin | 30-mer peptide degradation by recombinant enzyme (MSP-MS) (ALU30-10): Thrombin showed higher activity than Factor Xa, and it cleaved each of the 30-mer peptides | 30-mer peptide degradation by recombinant enzyme (MSP-MS) (ALU30-6): the CTSL1_2 motif had lower cleavage activity than did the CTSL1_1 motif (peptides Alu30-18 vs Alu30-6) | 30-mer peptide degradation by recombinant enzyme (MSP-MS) (ALU30-7): Thrombin showed higher activity than Factor Xa, and it cleaved each of the 30-mer peptides | 30-mer peptide degradation by recombinant enzyme (MSP-MS) (ALU30-5): Thrombin showed higher activity than Factor Xa, and it cleaved each of the 30-mer peptides | 30-mer peptide degradation by recombinant enzyme (MSP-MS) (ALU30-9): The two alternate ADAM17 motifs were cleaved with similar efficiency (peptides Alu30-17 vs Alu30-9) | 30-mer peptide degradation by recombinant enzyme (MSP-MS) (ALU30-12): the peptides Alu30-12, Alu30-13 and Alu30-15, with MMP141 motifs in combination with ADAM17_2 and CTSL1_1, were cleaved at lower efficiency by thrombin | 30-mer peptide degradation by recombinant enzyme (MSP-MS) (ALU30-4): Alu30-4 was also an efficient substrate | 30-mer peptide degradation by recombinant enzyme (MSP-MS) (ALU30-17): The two alternate ADAM17 motifs were cleaved with similar efficiency (peptides Alu30-17 vs Alu30-9)
